In patent US20200362050A1 (BLACK BELT THERAPEUTICS, published 2020):

How the values were obtained:
[1] = biological target: recombinant human CD38 his tagged (extracellular domain) (human) (UniProt P28907); assay: Forte Bio BLI, IgG on AHQ sensors
[2] = biological target: T1, human CD38 expressed on human cell lines (Daudi, Ramos, Raji, Jurkat) (human, UniProt P28907 1-300); assay: flow cytometry on Ramos cells, secondary rabbit anti-human Fcg F(ab')2, MFI against log antibody concentration
T1 construct: Endogenous CD38 of the cell lines; also called CD38 expressed on cell lines of human origin
T1 sequence: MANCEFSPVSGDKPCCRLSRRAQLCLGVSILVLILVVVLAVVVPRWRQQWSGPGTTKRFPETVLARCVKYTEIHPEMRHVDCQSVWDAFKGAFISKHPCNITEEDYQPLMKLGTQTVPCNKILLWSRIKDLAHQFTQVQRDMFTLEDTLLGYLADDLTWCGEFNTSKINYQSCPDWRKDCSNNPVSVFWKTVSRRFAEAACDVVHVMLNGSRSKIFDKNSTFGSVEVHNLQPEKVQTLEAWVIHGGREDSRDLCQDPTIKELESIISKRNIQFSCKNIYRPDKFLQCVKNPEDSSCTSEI
Protocol: (§1) Binding of anti-CD38 Antibodies to CD38-expressing cells: The candidate hits are evaluated by binding to lymphoblast like human cell lines, Ramos and Daudi. Binding to CD38 expressing human cell lines (Ramos and Daudi) was examined by staining test articles (anti-CD38 primary antibodies) with 20 μg/ml antibodies followed by semi-log dilution series (7-point) for 30 minutes on ice. This was followed by staining with a secondary antibody (rabbit anti-human Fcg F(ab′)2) concentration of 5 μg/ml for 30 minutes on ice. All samples were stained in triplicates. To minimize cross-linking induced cell death mediated by binding of the secondary antibody, cell lines were examined in staining cohorts of 4 test articles at a time. Live cells were gated using FSC vs SSC parameters by flow cytometry during sample acquisition. Mean fluorescence intensity (MFI) of stained cells were plotted on an XY chart, graphing MFI against the log of the concentration, and the data fit to a non-linear regression curve from which the EC50 is calculated.

[3] = biological target: T2, recombinant human CD38 his tagged (extracellular domain) (human, UniProt P28907 43-300); assay: SPR, Biacore 2000, antibody captured by anti-human antibody, rhCD38-his as analyte
T2 construct: Bought from Sino Biological; also called rhCD38; rhCD38-his; not shown: Histidine tag
T2 sequence: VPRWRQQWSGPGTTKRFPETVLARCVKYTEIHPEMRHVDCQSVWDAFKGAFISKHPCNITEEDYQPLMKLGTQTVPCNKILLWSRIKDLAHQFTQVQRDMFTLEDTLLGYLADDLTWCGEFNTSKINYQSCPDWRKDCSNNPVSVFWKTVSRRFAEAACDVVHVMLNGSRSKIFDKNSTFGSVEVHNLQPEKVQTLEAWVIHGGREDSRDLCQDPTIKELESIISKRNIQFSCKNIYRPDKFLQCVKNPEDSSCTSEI

[4] = biological target: T1, human CD38 expressed on human cell …; assay: flow cytometry on Daudi cells, secondary rabbit anti-human Fcg F(ab')2, MFI against log antibody concentration
Protocol: as §1

[5] = biological target: T2, recombinant human CD38 his tagged …; assay: BLI (Octet), avidity format: rhCD38-his loaded on Ni-NTA sensor, antibody in solution
Protocol: Avidity binding measurements of anti-CD38 Antibodies: Ni-NTA sensors were equilibrated off-line in assay buffer for 30 minutes and then monitored on-line for 60 seconds for baseline establishment. […] Then the antibody was associated at different concentrations (as described in FIGS. 8) for 50 min. Afterwards they were transferred to assay buffer for 30 minutes for off-rate measurement. Kinetics data were fit using a 1:1 binding model in the data analysis software provided by ForteBio.

[6] = biological target: T2, recombinant human CD38 his tagged …; assay: BLI (Octet / Forte Bio), IgG against monovalent human CD38-HIS (affinity)

IB4, reference monoclonal agonistic mouse anti-human CD38 antibody
Kd [1]: 9 nM

B1: aCD38-a-309 human IgG1 (aCD38-a-309-hIgG1) (antibody, V domains shown)
VH: EVQLVESGGGLVKPGGSLRLSCAASGFTFSSYSMNWVRQAPGKGLEWVSSISSSSNYIYYADSVKGRFTISRDNAKNSLYLQMNSLRAEDTAVYYCAREPIYTSGWPFDIWGQGTMVIVSS
VL: EIVLTQSPATLSLSPGERATLSCRASQSVSSYLAWYQQKPGQAPRLLIYDASNRATGIPARFSGSGSGTDFTLTISSLEPEDFAVYYCQQHVNFPWTFGGGTKVEIK
notes: They are assigned here because the control is a human IgG1 isotype; not shown: human IgG1 heavy chain constant region, P01857; human kappa light chain constant region, P01834
EC50 (read off the curve) [2]: ~0.4 µg/mL | Kd [3]: 0.65 nM | EC50 (read off the curve) [4]: ~0.2 µg/mL

B2: aCD38-a-309-IgG4 (antibody, V domains shown)
VH: EVQLVESGGGLVKPGGSLRLSCAASGFTFSSYSMNWVRQAPGKGLEWVSSISSSSNYIYYADSVKGRFTISRDNAKNSLYLQMNSLRAEDTAVYYCAREPIYTSGWPFDIWGQGTMVIVSS
VL: EIVLTQSPATLSLSPGERATLSCRASQSVSSYLAWYQQKPGQAPRLLIYDASNRATGIPARFSGSGSGTDFTLTISSLEPEDFAVYYCQQHVNFPWTFGGGTKVEIK
Kd [5]: 0.134 nM | Kd [6]: 32.9 nM
